Article PMC10739865, “The Mycobacterium tuberculosis methyltransferase Rv2067c manipulates host epigenetic programming to promote its own survival” (Nature Communications, 2023)

Molecular target: the molecule itself
Experiment: crystal structure

B1: Mycobacterium tuberculosis methyltransferase Rv2067c (tagless recombinant protein used for crystallization) (enzyme)
chain: TDDHPRADIVSRQYHRWLYPHPIADLEAWTTANWEWFDPVHSHRILWPDREYRPDLDILIAGCGTNQAAIFAFTNRAAKVVAIDISRPALDHQQYLKDKHGLANLELHLLPIEELATLGRDFDLVVSTGVLHHLADPRAGMKELAHCLRRDGVVAAMLYGKYGRIGVELLGSVFRDLGLGQDDASIKLAKEAISLLPTYHPLRNYLTKARDLLSDSALVDTFLHGRQRSYTVEECVDLVTSAGLVFQGWFHKAPYYPHDFFVPNSEFYAAVNTLPEVKAWSVMERLETLNATHLFMACRRDRPKEQYTIDFSTVAALDYVPLMRTRCGVSGTDMFWPGWRMAPSPAQLAFLQQVDGRRTIREIAGCVARTGEPSGGSLADLEEFGRKLFQSLWRLDFVAVALPASG
notes: also called MTase
In the case of B1, the “stoichiometry N” value is reported as 2.
